The DeepSol protein solubility set

Test: soluble on expression in E. coli; label from the status in PepcDB or PDB records

| Sequence | soluble on expression in E. coli |
| --- | --- |
| MGSSHHHHHHSSGLVPRGSHMVASETLKTKKMEVQIKKNFPSVLQYTMTDGKVMYGQSKDVRTVEINGTNIELGDDDVTFKKVSDTEATYTLKVKDEAKKIDAVITVQITVKANQLHLNVTKIKNNLSEGIPEGNGVEENAIQTLSFPNQSLVSVRSSQENAQFTGARMSSNTQKPGDTNFAVTEDTNVTDSDYTYGFISGAGLSAGLWSNSEHDGTYVAAPVRGGSQNTRVYATTQQTGDATSLGLASAPWYYHRTVTDSKGKKYTVAETALPQMAVAIAGDENEDGAVNWQDGAIAYRDIMNNPYKSEEVPELVAWRIAMNFGSQAQNPFLTTLDNVKKVALNTDGLGQSVLLKGYGNEGHDSGHPDYGDIGQRLGGADDMNTMMEEGSKYGARFGVHVNASEMYPEAKAFSEDMVRRNSAGGLSYGWNWLDQGVGIDGIYDLASGSRVSRFADLSKEVGDNMDFIYLDVWGNLTSSGSEDSWETRKMSKMINDNGWRMTTEWGSGNEYDSTFQHWAADLTYGGYTSKGENSEVMRFLRNHQKDSWVGDYPQYGGAANAPLLGGYNMKDFEGWQGRNDYAAYIKNLYTHDVSTKFIQHFKVTRWVNNPLLTADNGNAAAVSDPNTNNGNEQITLKDSNGNVVVVSRGSNDTSSAAYRQRTITFNGVKVASGVVSAGDGSATGDESYLLPWMWDSFTGKLVKDSEQKLYHWNTKGGTTTWTLPDSWKNLSSVKVYQLTDQGKTNEQTVAVSGGKVTLTADAETPYVVYKGEAKQIQVNWSEGMHVVDAGFNGGSNTLTDNWTVSGSGKAEVEGDNNAMLRLTGKVDVSQRLTDLKAGQKYALYVGVDNRSTGDASVTVTSGGKVLATNSTGKSIAKNYIKAYGHNTNSNTENGSSYFQNMYVFFTAPENGDATVTLSHKSTDGAHTYFDDVRIVENQYSGITYEKDGTLKSLTNGFENNAQGIWPFVVSGSEGVEDNRIHLSELHAPFTRAGWDVKKMDDVLDGTWSVKVNGLTQKGTLVYQTIPQNVKFEAGAKYKVSFDYQSGSDDIYAIAVGQGEYSAGSVKLTNLKKALGETGKAEFELTGGVNGDSWFGIYSTATAPDLQGSTGNAQDFGGYKDFVLDNLKIERIESQTRTKAEAQDKVKEIRGKYDSKRAELSDAAWQQYQDTLVKARVLINKNGATAEDFTKAYDILVALDEYMKTAPGNESSDKYDVAADGSDELGGYTVATGSEEPTAGLPSEGPADLAQDGNDSTHWHTSWSENAVGNGTAWYQFNLNEPTTINGLRYLPRSGGMNANGKIKGYKITLTLADGTTKDVVTDAEFSTTTMWQKASFDAVENVTAVRLTVLSSAGQSDSQANKFASAAELRLTTDRE | soluble |
| MGSDKIHHHHHHMENQLLTLKNNELTVQINPKGAELTHVIENKNKFDFIWNGSEWPKHAPILFPAIGRSTDDEYLLNQKIYPMQQHGFASDYFFEIIDQKEDQISLSLKDNEETYQSYPFQFELKVTYQLVSKKLKIQFEIKNLSVKKLTFALGFHPAFNLSANFEDYQISFETKDKTLKQFEIVKNPFPYRSGKIIEINKAVSNFPLEREFFEKGLVIFDNKIEEVKLFSQETDYQMTMKMADFPYLCLWTKEDENLSYLCIEPFQGLPDILNQKQELLQKEGNISLKSNESKTYEVELTFNSNKGES | not soluble |
| MIEFTALDDLSLLRESVSLECKLAQGRDGKGALPDDFWPTYSAMANTDGGIVILGVRERKGQFEVAGIENPDKLRTELFNHLNNRQKVSVNLLRDEDVRAWPVEGKTLLVVEIPRARRQQRPVYLRGNPLGGHTYRRLHEGDRPLPDEDVKRMLAEQVEDSRDERILPGYGLDDLHLESLRAYRQLFANRDPSHPWNALADQAFLRQIGGWRQHRETGEAGLTLAGLLMFGQWSSITEAVPLCFLDYQERPADYATTVQWLDRIVPDGTWSGNVFDFYRRVVGKLTADIKVPFVLKGDIRQDDTPTHKALREALVNTLVHADYTGRISVLVVKEPAGFVLRNPGGLRVPAQQALQGGMSDCRNRTMQQMFLMIGLGERAGSGMSRIVHGWRDLGHELHLRESYEPHEHSVLEMFWAKGRGATLASESSEESSEESSEETGKKILHLLREEPSLTASALARRLQLTPRAIEKQLAKLKAQKRLRRIGPNKGGHWEVGELEHHHHHH | soluble |
| MFKKLSVLALAMIISLSITACNSKENKANDESNTKVTTADDSKEKETLFVYSGAGLKKPMDEIAKKFEKENNVKVEYSYAGSAQLIAQIETSHKGDVFIVGSEPIYSKAFEKELVGEHKTVAHHTPAIVVPKGNPANIQKLEDLNKDGVKLILGDKESNAIGKTTQKILEKNNLKSINDNVVSTAATVNEMIVQLTSSKADATIATKDSVFGNEDVEVIEIAQDKNIDQLISAGIVNYSDKKDLANKFINYIESDEAKQIFKKYGFEPVK | not soluble |
| MGSDKIHHHHHHMRAFEKIPAFQQWQKVEAIHRGWSTDLKFKVTKNQETFLLRIFQQEELLAKQQEYQFIKKVAALGFPSSKPFLCAPIPESEQGYMLLTYLEGEDLSDVLPALSPKRQLNLGVEAGRYLNKIHKLLLPERISQREIAQNLYEKKQSQLNKYKESQFCMPYQQPIISYLEKQLPLLQQRPVVYQHGDFHVGNFIYLPTRQVGVIDFNRWDFGDPYEEFYKLQFFSRNVSPLFAYGQLQGYFAGKVPTLFWQFQKLYTFHAGLYSLVWALSFGEKEIRTMEQQYQQLLEDYNCGELLVPKWFSTIQRKGLRF | not soluble |
| MPPTPEVGLPLWLLAELTYRCPLQCPYCSNPLDFAAQGQELSTEQWFKVMAEAREMGAAQIGFSGGEPLVRQDLAQLIAEARRLGYYTNLITSGIGLTEARIADFKKAGLDHIQISFQASDEQVNNLLAGSKKAFAQKLEMARAVKAHGYPMVLNFVTHRHNIDKIDRIIELCIALEADFVELATCQFYGWAHLNRLGLLPTRAQLERAERITNEYRDKLKAEGNPCKLIFVTPDYYEERPKACMNGWGNLFLTITPDGTALPCH | not soluble |
| MSKNYHIAVLPGDGIGPEVMAQALKVMDAVRSRFDMRITTSHYDVGGIAIDNHGHPLPKATVEGCEQADAILFGSVGGPKWENLPPESQPERGALLPLRKHFKLFSNLRPAKLYQGLEAFCPLRADIAANGFDILCVRELTGGIYFGQPKGREGSGQYEKAFDTEVYHRFEIERIARIAFESARKRRRKVTSIDKANVLQSSILWREIVNDVAKTYPDVELAHMYIDNATMQLIKDPSQFDVLLCSNLFGDILSDECAMITGSMGMLPSASLNEQGFGLYEPAGGSAPDIAGKNIANPIAQILSLALLLRYSLDANDAATAIEQAINRALEEGVRTGDLARGAAAVSTDEMGDIIARYVAEGV | soluble |
| MGSDKIHHHHHHMAHEMIGTQIVTERLVALLESGTEKVLLIDSRPFVEYNTSHILEAININCSKLMKRRLQQDKVLITELIQHSAKHKVDIDCSQKVVVYDQSSQDVASLSSDCFLTVLLGKLEKSFNSVHLLAGGFAEFSRCFPGLCEGKSTLVPTCISQPCLPVANIGPTRILPNLYLGCQRDVLNKELMQQNGIGYVLNASNTCPKPDFIPESHFLRVPVNDSFCEKILPWLDKSVDFIEKAKASNGCVLVHCLAGISRSATIAIAYIMKRMDMSLDEAYRFVKEKRPTISPNFNFLGQLLDYEKKIKNQTGASGPKSKLKLLHLEKPNEPVPAVSEGGQKSETPLSPPCADSATSEAAGQRPVHPASVPSVPSVQPSLLEDSPLVQALSGLHLSADRLEDSNKLKRSFSLDIKSVSYSASMAASLHGFSSSEDALEYYKPSTTLDGTNKLCQFSPVQELSEQTPETSPDKEEASIPKKLQTARPSDSQSKRLHSVRTSSSGTAQRSLLSPLLRSGSVEDNYHTSFLFGLSTSQQHLTKSAGLGLKGWHSDILAPQTSTPSLTSSWYFATESSHFYSASAIYGGSASYSAYSCSQLPTCGDQVYSVRRRQKPSDRADSRRSWHEESPFEKQFKRRSCQMEFGESIMSENRSREELGKVGSQSSFSGSMEIIEVS | not soluble |
| MAEPKYAIIINDIKRLISDGTFKPGEKIYSEDELKKKYNVSNTTVVRALHELVRAGILARYQGKGTYVSKSIINEEVIFNEYTTVPNGKFNRKTKIANEHTKVVAINEIQDARIAKNLQIPPENMIVHFQRIRLIDDVPWTVQNNYMAKANLINVDLTNFERFNSLSEVIKELYGINILHEAMKERIQVEFPVKDKNNFKLLEIDSELPLYHIERITYVPEGQPYEYIESYLRHNFYSIEIEKKKQ | not soluble |
| MSLQPNTYFLHNILVTGATGFVGSFLCSRLLAEGMSVRGTFLVTENPDSLVKGTEQALIEPIGPATFWGHALAGAGTVIHLAARVHVMRERAADPLKEFRFVNTEGTAHLAREAAKAGVKRFVFMGTIGVNGDNSGDAPYIESSPPYPHNPYSVSKYEAEQLLRQISSETGMEVVIIRAPLVYGPGNPGNFLSLLKAVNGDYGFKTLNFGLKVLPLPLASINNKRSLIYVGNLVDALVTCATHPAAVGQTYLVSDGEDVSTPELIRRTAAALGVPARLFPFPVPLMKLAGKLIDKSAAVNRLTGSLTVDSSKIRRELGWQPPFTMEEGLQETAKWFEKQGEGHHHHHH | soluble |
| METYDVLVIGGGPGGSTAARYAAKYGLRTLMIEKRPEIGSPVRCGEGLSKGILNEADIKPDKSFIANEVKGARIYGPSEKRPIILQSEKAGNEVGFVLERDKFDKHLAALAAKAGADVWVKSPALGVIKEDGKVAGAKIRHENNVVEVRAKMVIAADGFESEFGRWAGLKSVILARNDIISALQYRMINIDVDPDYTDFYLGSIAPGGYIWVFPKGEGMANVGIGSSINFIHNRLELKNYLDRFIENHPGLKKGQDIQLVTGGVSVSKVKMPITMPGLMLVGDAARLIDPITGGGIANAIVSGMYAAQVSKEAIESNDYSPQMMGKYEKLVKDRFERKHLRNWVAKEKLAQLSDETLDKLVDIVSEQVLTTISVEAILKAIAEKYPEVVKELEDLILEHHHHHH | soluble |
| SLGSVLVDLQIATENIEGLPTEEQIVQWATGAVQPEGNEVEMTVRIVDEAESHELNLTYRGKDRPTNVLSFPFECPDEVELPLLGDLVICRQVVEREASEQEKPLMAHWAHMVVHGSLHLLGYDHIEDDEAEEMESLETQIMQGLGFDDPYLAEK | soluble |
| MAHHHHHHMWNGPTYAIARVRWDSVVRTFSACGTSLASPQRRFSSWFEEQPGGGQHNVEDKAVAAFAVNADRLEKGKTIIKKKAHGIPFHISDAEAVDNVCRHHGAAVEIHSVERFLMPFWLTETSAAGTFKADLLQHDRMNITQPHYFLWLEGPRYQFNYPFGEYMPMNQVSASYREPLKVVERCLTGTHVPSMLLSRFELLHEVEKMEHRPTVIPFTMSTVTALSVIERRVNRRVVLDRIDRELRKFHGSFLKSNVSVMSLQMVASSIRPAFLPLFKLTVSTISHSTPVPAFICGATGKVVGPVLHVQRRKRLGLAAAAAVGTLLSLAPLVEPGVATAAALAVVASSGFVQQAVQRARFVREQAHQMAQLKSVGVLNLVADSTGYRWTPEEEEKEEYEYREELRRQARARDAFEQRVKEEAARDRVRAHGTHFDPKNRRRTDLADVDPRGYYELLGLKGKEFSATAKDITKAFREAVRIHHPDVHPEGEAENKKRHMQRIIEAYKILHNPKTKKFYDSGEMSGKSQETS | not soluble |
| MGSDKIHHHHHHMVNMNIIEIRSDKIYKKIMDAPINKKEDIYRYELMKPFEFKWKCMNVPIVARQKGGYDVIIASEMLGVLSPKDIDEKQKKNINVLSADKIWATCKETIENSINAFIKEGYDLNIKDYKYSILLANPNSPYTILSDGYWGDGGIPGYIFLSLVPNEYTINRLPVLIAHECNHNIRFQFIEWNNNITLEEMMINEGLAENFATWMFGEEMLGPWVSRTDIETLNTYIKPIIKSALKETGFQNITSYLYGDDIAKMQGYFPVGLPYCAGYACGYYMIKYYLEKTNKSIIEATLLPYSEIIEAVKEFWE | not soluble |
| MEATNKMKVEVWSDIMCPFCYIGKRNYEAGLKQFADSNNIEIIWKSFQLDPNIPQDTAVTENVYQYLAERKGMSYEQSVQMHDSVVATAKKAGLDYNFDKAVIANSFNAHRMIQLAKTKDLGDAAEERLFYAYFTEGKNVGNSYVLIELGKDIGLTEAEVQTALTDDTYAYKVRQDVEEAQHLGVRGVPFFVFDRKYAVSGAQPPQAFLETLEKSFSEWRKEHPASPFEVSEGPSCSVDGCD | not soluble |
